Assay in all cases: cell-based or functional assay
For one test, the target named is T1, Cynomolgus IL-1α (cynomolgus, UniProt P79340 113-271).
T1 sequence (looked up): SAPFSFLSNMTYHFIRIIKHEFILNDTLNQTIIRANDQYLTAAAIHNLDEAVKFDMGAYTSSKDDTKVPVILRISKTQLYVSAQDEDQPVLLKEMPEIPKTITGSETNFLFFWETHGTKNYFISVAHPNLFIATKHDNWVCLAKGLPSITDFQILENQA

A further test deals with T2, Human mature IL-1α (human, UniProt P01583 113-271).
T2 sequence: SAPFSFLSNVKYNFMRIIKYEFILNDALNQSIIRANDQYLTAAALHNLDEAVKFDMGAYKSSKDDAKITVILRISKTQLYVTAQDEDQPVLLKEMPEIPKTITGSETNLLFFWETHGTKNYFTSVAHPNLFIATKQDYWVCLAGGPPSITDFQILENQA

The target in the next test is T3, Cynomolgus IL-1β (cynomolgus, UniProt P79182 117-268).
T3 sequence (looked up): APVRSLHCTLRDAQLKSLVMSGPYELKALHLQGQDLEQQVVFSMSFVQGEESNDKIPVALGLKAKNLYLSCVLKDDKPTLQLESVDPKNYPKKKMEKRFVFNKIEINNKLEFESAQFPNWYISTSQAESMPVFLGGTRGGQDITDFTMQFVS

In the next test the target is Human mature IL-1β (human, UniProt P01584 117-269).

B1: E26.13-SS-X3 JM DVD-Ig (bispecific antibody, human IgG1, kappa, L234A L235A)
heavy: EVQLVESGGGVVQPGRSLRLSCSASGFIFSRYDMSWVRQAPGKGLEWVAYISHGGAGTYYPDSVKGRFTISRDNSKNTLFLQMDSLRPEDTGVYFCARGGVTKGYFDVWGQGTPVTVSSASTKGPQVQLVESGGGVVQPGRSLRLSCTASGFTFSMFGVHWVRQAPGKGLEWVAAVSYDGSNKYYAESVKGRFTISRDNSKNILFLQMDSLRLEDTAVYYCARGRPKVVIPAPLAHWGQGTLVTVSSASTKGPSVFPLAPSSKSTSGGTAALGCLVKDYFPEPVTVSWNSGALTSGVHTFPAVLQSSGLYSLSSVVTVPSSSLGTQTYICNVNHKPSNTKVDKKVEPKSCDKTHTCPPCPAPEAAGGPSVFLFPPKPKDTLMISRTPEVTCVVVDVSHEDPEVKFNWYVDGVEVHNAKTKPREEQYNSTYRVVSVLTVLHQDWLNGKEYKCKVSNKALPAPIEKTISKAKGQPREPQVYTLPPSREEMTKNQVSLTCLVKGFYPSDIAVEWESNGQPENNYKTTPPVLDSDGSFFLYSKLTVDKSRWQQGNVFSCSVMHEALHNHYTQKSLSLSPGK
light: DIQMTQSPSSLSASVGDRVTITCRASGNIHNYLTWYQQTPGKAPKLLIYNAKTLADGVPSRFSGSGSGTDYTFTISSLQPEDIATYYCQHFWSIPYTFGQGTKLQITRTVAAPDIQMTQSPSSVSASVGDRVTITCRASQGISSWLAWYQQKPGKAPKLLIYEASNLETGVPSRFSGSGSGSDFTLTISSLQPEDFATYYCQQTSSFLLSFGGGTKVEIKRTVAAPSVFIFPPSDEQLKSGTASVVCLLNNFYPREAKVQWKVDNALQSGNSQESVTEQDSKDSTYSLSSTLTLSKADYEKHKVYACEVTHQGLSSPVTKSFNRGEC
For the molecule B1, the results for the “Potency (pM), inhibition of IL-1-induced hIL-8 in MRC5 cells” value (shortened to “Potency (pM), inhibition”) with Cynomolgus IL-1α, with Human mature IL-1α and with Cynomolgus IL-1β were 1880 pM, 26.5 pM and 17.6 pM, respectively.

B2: E26.35-SS-X3 DVD-Ig (bispecific antibody, human IgG1, kappa, L234A L235A)
heavy: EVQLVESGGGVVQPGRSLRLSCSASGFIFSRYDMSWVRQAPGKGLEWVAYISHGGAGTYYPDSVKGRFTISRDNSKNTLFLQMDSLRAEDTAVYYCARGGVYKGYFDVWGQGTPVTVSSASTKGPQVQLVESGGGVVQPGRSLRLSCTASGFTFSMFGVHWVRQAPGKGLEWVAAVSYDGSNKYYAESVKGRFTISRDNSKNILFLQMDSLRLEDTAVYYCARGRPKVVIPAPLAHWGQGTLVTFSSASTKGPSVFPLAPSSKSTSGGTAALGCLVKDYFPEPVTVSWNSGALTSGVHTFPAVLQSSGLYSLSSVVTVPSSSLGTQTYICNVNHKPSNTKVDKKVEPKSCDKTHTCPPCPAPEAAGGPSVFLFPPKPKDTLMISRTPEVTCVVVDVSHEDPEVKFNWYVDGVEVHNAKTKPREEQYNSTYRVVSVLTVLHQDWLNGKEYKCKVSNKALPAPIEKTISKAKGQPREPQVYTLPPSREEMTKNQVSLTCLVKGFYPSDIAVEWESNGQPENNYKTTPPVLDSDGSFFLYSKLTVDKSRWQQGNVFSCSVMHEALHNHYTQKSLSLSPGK
light: DIQMTQSPSSLSASVGDRVTITCRASGNIHNYLTWYQQTPGKAPKLLIYNAKTLADGVPSRFSGSGSGTDYTFTISSLQPEDIATYYCQHFWSIPYTFGQGTKLQITRTVAAPDIQMTQSPSSVSASVGDRVTITCRASQGISSWLAWYQQKPGKAPKLLIYEASNLETGVPSRFSGSGSGSDFTLTISSLQPEDFATYYCQQTSSFLLSFGGGTKVEHKRTVAAPSVFIFPPSDEQLKSGTASVVCLLNNFYPREAKVQWKVDNALQSGNSQESVTEQDSKDSTYSLSSTLTLSKADYEKHKVYACEVTHQGLSSPVTKSFNRGEC
B2: the “Potency (pM), inhibition” value with Cynomolgus IL-1α was 474 pM; in the test with Human mature IL-1α, 25.8 pM; with Human mature IL-1β, 1.8 pM; in the test with Cynomolgus IL-1β it was 0.6 pM.

B3: E26.13-LL-X3 DVD-Ig (bispecific antibody, human IgG1, kappa, L234A L235A)
heavy: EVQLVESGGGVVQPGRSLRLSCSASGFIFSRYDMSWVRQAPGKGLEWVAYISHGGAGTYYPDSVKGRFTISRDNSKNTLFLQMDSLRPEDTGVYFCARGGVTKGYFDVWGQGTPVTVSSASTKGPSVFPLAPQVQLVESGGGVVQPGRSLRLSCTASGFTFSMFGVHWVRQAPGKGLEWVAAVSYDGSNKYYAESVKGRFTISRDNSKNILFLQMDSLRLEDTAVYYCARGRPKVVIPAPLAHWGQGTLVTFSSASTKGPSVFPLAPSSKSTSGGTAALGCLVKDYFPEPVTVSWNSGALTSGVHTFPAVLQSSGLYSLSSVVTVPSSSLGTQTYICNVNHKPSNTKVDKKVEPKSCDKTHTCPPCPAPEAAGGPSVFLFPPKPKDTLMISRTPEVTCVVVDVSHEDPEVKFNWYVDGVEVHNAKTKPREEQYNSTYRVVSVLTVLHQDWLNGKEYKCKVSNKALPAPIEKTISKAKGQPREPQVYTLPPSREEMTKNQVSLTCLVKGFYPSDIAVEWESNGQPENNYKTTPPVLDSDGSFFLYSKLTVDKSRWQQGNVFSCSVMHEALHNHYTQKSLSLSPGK
light: DIQMTQSPSSLSASVGDRVTITCRASGNIHNYLTWYQQTPGKAPKLLIYNAKTLADGVPSRFSGSGSGTDYTFTISSLQPEDIATYYCQHFWSIPYTFGQGTKLQITRTVAAPSVFIFPPDIQMTQSPSSVSASVGDRVTITCRASQGISSWLAWYQQKPGKAPKLLIYEASNLETGVPSRFSGSGSGSDFTLTISSLQPEDFATYYCQQTSSFLLSFGGGTKVEHKRTVAAPSVFIFPPSDEQLKSGTASVVCLLNNFYPREAKVQWKVDNALQSGNSQESVTEQDSKDSTYSLSSTLTLSKADYEKHKVYACEVTHQGLSSPVTKSFNRGEC
For B3, the figures for the “Potency (pM), inhibition” value in the test with Cynomolgus IL-1α and with Human mature IL-1α were 1050 pM and 10.2 pM, respectively.

B4: X3-LL-E26.13 DVD-Ig (bispecific antibody, human IgG1, kappa, L234A L235A)
heavy: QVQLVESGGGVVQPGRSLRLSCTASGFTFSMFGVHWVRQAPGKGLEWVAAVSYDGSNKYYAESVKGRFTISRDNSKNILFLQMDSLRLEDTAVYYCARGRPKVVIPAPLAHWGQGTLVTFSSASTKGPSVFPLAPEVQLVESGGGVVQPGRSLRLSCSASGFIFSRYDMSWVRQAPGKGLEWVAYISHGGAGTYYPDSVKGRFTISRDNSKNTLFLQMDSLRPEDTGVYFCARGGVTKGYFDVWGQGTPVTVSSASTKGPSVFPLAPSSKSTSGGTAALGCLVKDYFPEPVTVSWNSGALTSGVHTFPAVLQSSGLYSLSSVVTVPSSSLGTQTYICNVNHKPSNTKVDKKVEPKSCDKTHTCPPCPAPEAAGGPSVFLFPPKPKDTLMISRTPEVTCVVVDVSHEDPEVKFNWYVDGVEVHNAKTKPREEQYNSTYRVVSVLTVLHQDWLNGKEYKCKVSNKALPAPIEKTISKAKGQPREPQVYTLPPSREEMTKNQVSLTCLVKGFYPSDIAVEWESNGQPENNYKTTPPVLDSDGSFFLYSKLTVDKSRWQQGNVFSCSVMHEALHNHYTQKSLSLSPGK
light: DIQMTQSPSSVSASVGDRVTITCRASQGISSWLAWYQQKPGKAPKLLIYEASNLETGVPSRFSGSGSGSDFTLTISSLQPEDFATYYCQQTSSFLLSFGGGTKVEHKRTVAAPSVFIFPPDIQMTQSPSSLSASVGDRVTITCRASGNIHNYLTWYQQTPGKAPKLLIYNAKTLADGVPSRFSGSGSGTDYTFTISSLQPEDIATYYCQHFWSIPYTFGQGTKLQITRTVAAPSVFIFPPSDEQLKSGTASVVCLLNNFYPREAKVQWKVDNALQSGNSQESVTEQDSKDSTYSLSSTLTLSKADYEKHKVYACEVTHQGLSSPVTKSFNRGEC
Regarding B4, the results for the “Potency (pM), inhibition” value in the test with Human mature IL-1α and with Human mature IL-1β were 8.9 pM and 1470 pM, respectively.
